From the PETadex activity labels (doi:10.1021/acsomega.4c04843) come the findings set out here.

Substrate in series [1]: pNPB
The experiment in a line: Proxy for plastic degradation [p-nitrophenol (pNP) release]. Particulars: pH 7.4.

Substrate in series [2]: PET
Description: Proxy for plastic degradation [Released monomer concentration (HPLC/LC-MS) (TPA)]. The settings on record: pH 8.

B1: unnamed (protein)
chain: MFRFHIVSALLTLFIAVPSQAHDVGQREIKISGAEPGRNLEVSVWYPAAIDGKATLIGDNIIFKGAPAVIDATPEKGSFPLLVMSHGSGGRAQGMAWLATELVKAGIIVAAPNHPGTTSGDSTPQDTPKIWQRTGDLSAVIDTMTTDPAWSGIIDKNKISVLGWSLGGAAAMEIAGARANLEAYARYCDTYGKWDCAWYAGGIGYRDDKQIKVDKVDLRSVDKSRFEQSNLDRRIASAIMIDPGLAQAYDAQSLASISIPMSFINLGEVETIPTGVVADKLASITPQGTYVTVAGATHFSFLPECKKGAADRLKSAGEVDPICSDDARRPRADIHADITKLVLKALQSMPKT
Consider B1, for which the “Proxy for plastic degradation” value in series [1] stood at 5 U/mL.

B2: unnamed (protein)
chain: MFRFHIVSALLTLFIAVPSQAHDVGQREIKISGAEPGRNLEVSVWYPAAIDGKATLIGDNIIFKGAPAVIDATPEKGSFPLLVMSHGSGGRAQGMAWLATELVKAGIIVAAPNHPGTTSGDSTPQDTPKIWQRTGDLSAVIDTMTTDPAWSGIIDKNKISVLGFSMGGAAAMEIAGARANLEAYARYCDTYGKWDCAWYAGGIGYRDDKQIKVDKVDLRSVDKSRFEQSNLDRRIASAIMIDPGLAQAYDAQSLASISIPMSFINLGEVETIPTGVVADKLASITPQGTYVTVAGATHFSFLPECKKGAADRLKSAGEVDPICSDDARRPRADIHADITKLVLKALQSMPKT
As to B2, the “Proxy for plastic degradation” value in series [1] was 225 U/mL.

B3: unnamed (protein)
chain: MFRFHIVSALLTLFIAVPSQAHDVGQREIKISGAEPGRNLEVSVWYPAAIDGKATLIGDNIIFKGAPAVIDATPEKGSFPLLVMSHGSGGRAQGMAWLATELVKAGIIVAAPNHPGTTSGDSTPQDTPKIWQRTGDLSAVIDTMTTDPAWSGIIDKNKISVLGFSLGGAAAMEIAGARANLEAYARYCDTYGKWDCAWYAGGIGYRDDKQIKVDKVDLRSVDKSRFEQSNLDRRIASAIMIDPGLAQAYDAQSLASISIPMSFINLGEVETIPTGVVADKLASITPQGTYVTVAGATHISFLPECKKGAADRLKSAGEVDPICSDDARRPRADIHADITKLVLKALQSMPKT
For the protein B3, the “Proxy for plastic degradation” value in series [1] was found to be 75 U/mL.

B4: unnamed (protein)
chain: MFRFHIVSALLTLFIAVPSQAHDVGQREIKISGAEPGRNLEVSVWYPAAIDGKATLIGDNIIFKGAPAVIDATPEKGSFPLLVMSHGSGGRAQGMAWLATELVKAGIIVAAPNHPGTTSGDSTPQDTPKIWQRTGDLSAVIDTMTTDPAWSGIIDKNKISVLGFSLGGAAAMEIAGARANLEAYARYADTYGKWDCAWYAGGIGYRDDKQIKVDKVDLRSVDKSRFEQSNLDRRIASAIMIDPGLAQAYDAQSLASISIPMSFINLGEVETIPTGVVADKLASITPQGTYVTVAGATHFSFLPECKKGAADRLKSAGEVDPICSDDARRPRADIHADITKLVLKALQSMPKT
For B4, in series [1], the “Proxy for plastic degradation” value was 10 U/mL.

B5: unnamed (protein)
chain: MFRFHIVSALLTLFIAVPSQAHDVGQREIKISGAEPGRNLEVSVWYPAAIDGKATLIGDNIIFKGAPAVIDATPEKGSFPLLVMSHGSGGRAQGMAWLATELVKAGIIVAAPNHPGTTSGDSTPQDTPKIWQRTGDLSAVIDTMTTDPAWSGIIDKNKISVLGFSLGGAAAMEIAGARANLEAYARYCDTYGKWDCAWYAGGIGYRDDKQIKVDKVDLRSVDKSRFEQSNLDRRIASAIMIAPGLAQAYDAQSLASISIPMSFINLGEVETIPTGVVADKLASITPQGTYVTVAGATHFSFLPECKKGAADRLKSAGEVDPICSDDARRPRADIHADITKLVLKALQSMPKT
On to B5, for which the “Proxy for plastic degradation” value in series [1] stood at 20 U/mL.

B6: unnamed (protein)
chain: MFRFHIVSALLTLFIAVPSQAHDVGQREIKISGAEPGRNLEVSVWYPAAIDGKATLIGDNIIFKGAPAVIDATPEKGSFPLLVMSHGSGGRAQGMAWLATELVKAGIIVAAPNHPGTTSGDSTPQDTPKIWQRTGDLSAVIDTMTTDPAWSGIIDKNKISVLGFSLGGAAAMEIAGARANLEAYARYCDTYGKWDCAWYAGGIGYRDDKQIKVDKVDLRSVDKSRFEQSNLDRRIASAIMIDPGLAQAYDAQSLASISIPMSFINLGEVETIPTGVVADKLASITPQGTYVTVDGATHFSFLPECKKGAADRLKSAGEVDPICSDDARRPRADIHADITKLVLKALQSMPKT
Take B6: the “Proxy for plastic degradation” value in series [1] amounted to 100 U/mL; in series [2], 1 mM/mg.

B7: unnamed (protein)
chain: MLHYKTYTISDDHPWVIFIHGAGGSLSHWYRQLRPFRKKYNVLLVDLRGHGGSYDAEQSLKQPLNAYTFDVVAKDVIEVMDHLGIEKGHMVGLSLGTIVIQAMFEHYPDRIASVVLGGAIVKFNVRSTMLIRLGSLVQNFVPYMWLYKLFAWILLPKKRHKKSRMMFVRDAANLCQREFIRWFKMTENINPLLNQFTSIQTNVPILYIMGDEDYMFLEAVERTAKHQPTANVEIVADSGHVVNVDQPDQFNALSMNFIDDQIQARSLQMS
Take B7: the “Proxy for plastic degradation” value in series [1] was found to be 4 U/mL.
